Test results taken from patent US20090202506A1 (ORTHO MCNEIL PHARMACEUTICAL, published 2009).
Values belong to the binder of their own block, whether it stands above or below them.

Legend:
L^d MHC class I molecule [1] = biological target: T1, L^d MHC class I molecule (;mouse, UniProt P01887 21-119; P01897 25-362, limits assumed); assay: MHC class I stabilization assay, flow cytometry of surface L^d on RMAS-L^d cells with titrated peptide
T1 construct: Empty class I molecule on the surface of RMAS-L^d cells; also called L^d class I molecules
T1 sequence (MHC heavy, looked up): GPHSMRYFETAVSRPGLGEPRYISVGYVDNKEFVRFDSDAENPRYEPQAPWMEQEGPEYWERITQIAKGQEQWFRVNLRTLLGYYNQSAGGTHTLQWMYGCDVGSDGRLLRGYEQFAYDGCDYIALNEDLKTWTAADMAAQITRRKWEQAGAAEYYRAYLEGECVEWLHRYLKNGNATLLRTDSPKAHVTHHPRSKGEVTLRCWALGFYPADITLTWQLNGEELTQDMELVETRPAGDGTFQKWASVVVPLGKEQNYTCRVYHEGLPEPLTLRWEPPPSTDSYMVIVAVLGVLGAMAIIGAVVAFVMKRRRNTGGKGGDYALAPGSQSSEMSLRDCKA
T1 sequence (b2m, looked up): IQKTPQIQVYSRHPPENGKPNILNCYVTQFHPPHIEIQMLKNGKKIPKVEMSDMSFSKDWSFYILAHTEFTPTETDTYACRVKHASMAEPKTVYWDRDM
Protocol: (§1) The binding capacity of these synthetic peptides to L^d and D^b class I molecules were tested in an MHC class I stabilization assay (Cai et al. (1996) supra). Antigen-transporting deficient (TAP) RMAS cells (H-2^b) or L^d transfected RMAS (RMAS-L^d) cells were cultured in the presence of a titrated concentration of peptides at 27° C. After overnight culturing at 27° C., these cells were further cultured for two hours at 37° C. and the surface expression of L^d or D^b on the cells were analyzed by flow cytometry. […] Of the five peptides predicted bind to D^b, only IgE44 binds Db strongly and two peptides, IgE16 and IgE125, bind D^b weakly. […] Thus, a total of six peptides were identified that bind to either L^d or D^b MHC class I molecules.

D^b MHC class I molecule [2] = biological target: T2, D^b MHC class I molecule (;mouse, UniProt P01887 21-119; P01899 25-309, limits assumed); assay: MHC class I stabilization assay, flow cytometry on RMAS cells
T2 construct: Empty class I molecule on the surface of RMAS cells; also called D^b class I molecules
T2 sequence (MHC heavy, looked up): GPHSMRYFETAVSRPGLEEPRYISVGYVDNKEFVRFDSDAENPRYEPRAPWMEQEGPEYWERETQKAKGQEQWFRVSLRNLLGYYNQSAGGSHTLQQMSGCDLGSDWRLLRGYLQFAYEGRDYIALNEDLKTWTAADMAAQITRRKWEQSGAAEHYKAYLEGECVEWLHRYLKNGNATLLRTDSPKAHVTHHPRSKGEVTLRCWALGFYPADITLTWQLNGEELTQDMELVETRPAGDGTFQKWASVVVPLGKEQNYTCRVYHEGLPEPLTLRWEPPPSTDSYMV
T2 sequence (b2m, looked up): T1 sequence (b2m, looked up)
Protocol: as §1

D^b MHC class I molecule [3] = biological target: T2, D^b MHC class I molecule; assay: MHC class I stabilization assay, flow cytometry of surface D^b on RMAS cells with titrated peptide
Protocol: as §1

L^d MHC class I molecule [4] = biological target: T1, L^d MHC class I molecule; assay: MHC class I stabilization assay, flow cytometry on RMAS-L^d cells
Protocol: as §1

B2: IgE 44 (peptide)
peptide: MSTVNFPAL
notes: also called MSTVNFPAL
ratio of fluorescence intensity (with peptide - without peptide)/without peptide (D^b MHC class I molecule [2]): > 2 fold

B4: IgE 366 (peptide)
peptide: GSNQGFFIF
binding result (L^d MHC class I molecule [4]): binds
binding result (D^b MHC class I molecule [2]): binds

B6: IgE 16 (peptide)
peptide: TASMTLGCL
binding result (D^b MHC class I molecule [2]): binds

B9: IgE 11 (peptide)
peptide: KPCKGTASM
ratio of fluorescence intensity (with peptide - without peptide)/without peptide (L^d MHC class I molecule [4]): > 2 fold

B11: IgE 125 (peptide)
peptide: GHILNDVSV
binding result (D^b MHC class I molecule [2]): binds

B13: IgE 114 (peptide)
peptide: HSTIQLYCF
binding result (L^d MHC class I molecule [4]): binds

The remaining lines, values ahead:

binding result (L^d MHC class I molecule [1]): no binding
B1: IgE 363 (peptide)
peptide: KSNGSNQGF

binding result (D^b MHC class I molecule [3]): no binding
B3: IgE 411 (peptide)
peptide: TSLGNTSLR

binding result (L^d MHC class I molecule [1]): no binding
B5: IgE 29 (peptide)
peptide: FPNPVTVTW

binding result (L^d MHC class I molecule [1]): no binding
B7: IgE 105 (peptide)
peptide: HSSCDPNAF

binding result (D^b MHC class I molecule [3]): no binding
B8: IgE 159 (peptide)
peptide: ASTCSKLNI

binding result (L^d MHC class I molecule [1]): no binding
B10: IgE 209 (peptide)
peptide: IPPSPLDLY

binding result (L^d MHC class I molecule [1]): no binding
B12: IgE 307 (peptide)
peptide: RSAPEVYVF
